# Results as given in paper PMC10534222.
# pKd: −log10 of the molar value.
# Key:
# [1] = target: FITC-labelled peptide (FITC)…; experiment: fluorescence polarisation
# [2] = target: chicken Tapasin (chTapasin), luminal domain (chicken (Gallus gallus)); experiment: SPR
# [3] = target: chicken Tapasin (chTapasin), luminal domain (chicken (Gallus gallus)); experiment: NMR titration
pKd [1],pKd [2],lifetime of the complex [3] [ms],Substance
8.26,–,–,empty open B*37:01/chTapasin complex (from UniProt P61769 21-119)
8.21,5.92,> 200,"open HLA-B*37:01 (heavy chain G120C, β2m H31C, interchain disulfide), empty (UV-irradiated) (from UniProt P61769 21-119) (complex)"
